Assay results as given in article PMC8213733, “Subtype-specific collaborative transcription factor networks are promoted by OCT4 in the progression of prostate cancer” (Nature Communications, 2021).

Target: T1, Flag-AR (human (cDNA of PC cells, said of the …, UniProt P10275 1-920))
T1 construct: androgen receptor, full length in Flag-tagged pcDNA3.0; also called androgen receptor; source: 293T, transfected, cells treated with 10 nM DHT or vehicle, purified (Flag M2 agarose beads, glycine elution)
T1 sequence (looked up): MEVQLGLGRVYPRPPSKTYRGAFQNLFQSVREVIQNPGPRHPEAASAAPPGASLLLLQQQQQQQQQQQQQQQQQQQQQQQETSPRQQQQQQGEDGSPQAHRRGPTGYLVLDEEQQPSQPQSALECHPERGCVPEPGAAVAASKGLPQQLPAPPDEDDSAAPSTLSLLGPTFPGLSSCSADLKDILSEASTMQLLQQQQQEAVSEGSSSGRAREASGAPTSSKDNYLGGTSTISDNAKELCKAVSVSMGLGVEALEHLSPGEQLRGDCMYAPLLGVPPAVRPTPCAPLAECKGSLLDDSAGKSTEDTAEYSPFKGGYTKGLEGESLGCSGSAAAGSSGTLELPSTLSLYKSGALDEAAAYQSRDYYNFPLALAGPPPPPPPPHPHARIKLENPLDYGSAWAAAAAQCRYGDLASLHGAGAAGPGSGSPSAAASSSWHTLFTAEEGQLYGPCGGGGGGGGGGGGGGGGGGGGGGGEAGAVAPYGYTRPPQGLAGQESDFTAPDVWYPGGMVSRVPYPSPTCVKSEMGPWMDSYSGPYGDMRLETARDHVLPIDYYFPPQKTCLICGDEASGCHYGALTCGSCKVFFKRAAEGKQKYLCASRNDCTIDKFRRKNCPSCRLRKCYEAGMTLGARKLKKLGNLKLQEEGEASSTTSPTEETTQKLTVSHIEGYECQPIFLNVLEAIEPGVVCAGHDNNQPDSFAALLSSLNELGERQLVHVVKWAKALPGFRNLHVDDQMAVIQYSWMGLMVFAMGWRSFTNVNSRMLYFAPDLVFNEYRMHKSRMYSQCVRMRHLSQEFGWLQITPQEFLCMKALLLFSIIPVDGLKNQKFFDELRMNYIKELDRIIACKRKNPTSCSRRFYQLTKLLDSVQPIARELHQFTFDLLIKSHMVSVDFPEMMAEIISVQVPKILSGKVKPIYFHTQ
Experiment: co-IP; in vitro binding assay: purified proteins in 20 mM Tris-HCl pH 7.5, 150 mM NaCl, 0.1% Triton X-100, 1 mM DTT, 4 °C, 5 h; FOXA1 immunoprecipitated, bound proteins by western blot; with or without ribavirin-phosphate
Conditions: both partners purified

B1: Flag-FOXA1 (natural protein, UniProt P55317 1-472, looked up)
chain: MLGTVKMEGHETSDWNSYYADTQEAYSSVPVSNMNSGLGSMNSMNTYMTMNTMTTSGNMTPASFNMSYANPGLGAGLSPGAVAGMPGGSAGAMNSMTAAGVTAMGTALSPSGMGAMGAQQAASMNGLGPYAAAMNPCMSPMAYAPSNLGRSRAGGGGDAKTFKRSYPHAKPPYSYISLITMAIQQAPSKMLTLSEIYQWIMDLFPYYRQNQQRWQNSIRHSLSFNDCFVKVARSPDKPGKGSYWTLHPDSGNMFENGCYLRRQKRFKCEKQPGAGGGGGSGSGGSGAKGGPESRKDPSGASNPSADSPLHRGVHGKTGQLEGAPAPGPAASPQTLDHSGATATGGASELKTPASSTAPPISSGPGALASVPASHPAHGLAPHESQLHLKGDPHYSFNHPFSINNLMSSSEQQHKLDFKAYEQALQYSPYGSTLPASLPLGSASVTTRSPIEPSALEPAYYQGVYSRPVLNTS
notes: FOXA1, full length in Flag-tagged pcDNA3.0; source: 293T, transfected, purified (Flag M2 agarose beads, glycine elution)
Does B1 bind?
Result: binds
